According to US20080305111A1, “Anti-C35 antibodies for treating cancer” (VACCINEX, INC., priority 2006, published 2008):
“Also recorded” adds a separate entry of the source.

Columns and labels:
rC35 = biological target: T1, rC35 (Homo sapiens, UniProt Q9BRT3); test: Biacore affinity testing of MAb 163 (1:1 kinetic model); assay type: binding
T1 construct: made in house; host or cells: E. coli
T1 sequence (Q9BRT3 1-115): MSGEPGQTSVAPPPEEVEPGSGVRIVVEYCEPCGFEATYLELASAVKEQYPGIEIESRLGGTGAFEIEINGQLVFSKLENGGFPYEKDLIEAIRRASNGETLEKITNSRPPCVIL
Experimental: To measure affinity using Biacore, a CM5 chip surface was prepared by immobilizing Goat Anti-Human IgG Fc through amine coupling. The monoclonal human antibody MAb 163 was then captured by flow over the chip containing the Goat Anti-Human IgG. The rC35 was then serial diluted into two separate series to cover a wide range of concentration points and binding efficiencies, and then the C35 was allowed to flow over the chip containing bound MAb 163. The binding was recorded in a series of sensograms. The binding was evaluated using BIAevaluation software, where the Ka and Kd were calculated by fitting the curves and correcting for Mass Transfer.

[1] = biological target: T2, recombinant human C35 (rhC35) (Homo sapiens, UniProt Q9BRT3); test: Epitope mapping by Lys-C digestion of rhC35 and Western blot; assay type: binding; details: residues numbered from amino terminal methionine of native human C35
T2 construct: made in house; host or cells: E. coli
T2 sequence (Q9BRT3 1-115): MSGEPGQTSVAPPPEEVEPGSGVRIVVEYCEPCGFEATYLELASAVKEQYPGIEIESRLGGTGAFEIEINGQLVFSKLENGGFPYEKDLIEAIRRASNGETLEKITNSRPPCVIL
Description: To localize the epitope specificity of 1B3 and 1F2 antibodies, recombinant human C35 (rhC35) synthesized with a 6×His tag in E. coli was digested with Lys-C endoproteinase. This enzyme cuts after lysine (K) residues in the protein sequence. […] The full sequence of rhC35, including the amino terminal 6×His tag addition is shown. Amino acid positions are numbered relative to the amino terminal methionine (M) of the native human sequence. Note that digestion at the first and third lysine followed by negatively charged residues is inefficient and some longer combination fragments may be generated. Lys-C endoproteinase was added to purified rhC35 at a 50:1 weight ratio and incubated for 18 hours at 37° C. in 25 mM Tris, pH 8.0. The digest was ethanol precipitated and resolubilized in reducing Tricine sample buffer. […] Peptides were transferred to PVDF membranes and the blots depicted in FIG. 10 were either stained with Coomassie blue (lanes 1-3 of both left and right panels) to detect all peptides or processed with one of the following: 1 μg/ml of the murine 1F2 anti-C35 antibody followed by alkaline phosphatase conjugated goat anti-mouse antibody (lane 4 of left panel); 1 μg/ml of the 1B3 anti-C35 immunoglobulin variable regions linked to human constant regions (MAb11) followed by alkaline phosphatase conjugated goat anti-human antibody (lane 5 of left panel); or anti-6×His tag mouse antibody (Amersham) followed by alkaline phosphatase conjugated goat anti-mouse antibody (lane 4 and 5 of right panel). BCIP/NBT substrate was added and developed to detect the secondary reagents. Molecular weight markers are indicated in the flanking lanes of both panels.
In FIG. 10, the indicated band A migrates at the position of undigested rhC35. Note that band B stains with 1F2 but not MAb11 (1B3) anti-C35 antibody while band C stains with neither 1F2 nor MAb11 (1B3) antibody. Since bands B and C both do stain with anti-6×His tag antibody to the 6×His tag at the amino terminus of rhC35, it may be concluded that both fragments lack C-terminal peptide fragments. […]

[2] = system: C35-positive 21MT1-D cells; test: Immunofluorescence staining (FMAT), C35-positive cells; assay type: cell-based, human; details: MAb163 at 3, 1, 0.3 or 0.1 μg/ml
C35-negative H16N2 cells = test: Immunofluorescence staining (FMAT), C35-negative cells; assay type: cell-based, human; details: MAb163 at 3, 1, 0.3 or 0.1 μg/ml
C35 [3] = biological target: T3, C35 (Homo sapiens, UniProt Q9BRT3); test: Western blot, tumor specific binding of MAb 163; design: endogenous in cells; host or cells: 21MT1-D human breast tumor cell line
T3 sequence (Q9BRT3 1-115): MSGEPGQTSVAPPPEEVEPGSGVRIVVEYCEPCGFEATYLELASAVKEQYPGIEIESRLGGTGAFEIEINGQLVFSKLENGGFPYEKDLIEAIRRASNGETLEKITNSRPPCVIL

C35 [4] = biological target: T3, C35; test: Immunoprecipitation of C35 from 21MT1-D cell lysates; assay type: binding; design: endogenous in cells; host or cells: 21MT1-D human breast tumor cell line; details: detected with rabbit anti-C35 polyclonal sera; IgG negative control did not
Experimental: The number “15” indicates the molecular weight marker at 15 kDalton. The number “163” indicates the mAb163 monoclonal antibody. “Neg IgG” indicates an IgG negative control antibody.
Briefly, 10 ml of MAb163 in CHO cell supernatant was buffer-exchanged into PBS and concentrated to 1 ml. Concentrated MAb 163 was added to protein A beads for greater than one hour. After washing, protein A/MAb163 was added to C35-positive 21MT1-D cell lysates for 2 hours. After washing the beads, the protein was eluted with reducing sample buffer at 100° C.
Immunoprecipitated samples were analyzed by Western blot using rabbit anti-C35 polyclonal sera. As shown in the left lane of FIG. 22, lysate from 100,000 21MT1-D cells was included on the Western blot as a control. The number “15” in FIG. 22 indicates a molecular weight marker at 15 kDalton.

[5] = system: C35-positive MDA231 tumor cells; test: Two C35 antibodies and paclitaxel in MDA231 xenograft (FIG. 12); assay type: in vivo, Swiss nude mice; details: antibody 20 mg/kg i.v. twice weekly for three weeks, paclitaxel 30 mg/kg i.p. days 17 and 24
Experimental: As illustrated in FIG. 12 and described in this example, methods of treating cancer directed to the administration of two C35 antibodies in combination with a chemotherapeutic agent were tested. Five million C35-positive MDA231 tumor cells were implanted subcutaneously in the mammary fat pads of Swiss nude mice. Groups of at least five mice each received the following treatments, beginning on day 17 post-graft: • 1. No Treatment (Control Group) • 2. 30 mg/kg i.p. injection of paclitaxel on days 17 and 24. • 3. 30 mg/kg i.p. injection of paclitaxel on days 17 and 24, together with 400 μg per i.v. injection (20 mg/kg) of 1F2 murine monoclonal antibody starting on day 17 and continuing twice weekly for three weeks. • 4. 30 mg/kg i.p. injection of paclitaxel on days 17 and 24, together with 400 μg per i.v. injection (20 mg/kg) of […] murine monoclonal antibody starting on day 17 and continuing twice weekly for three weeks. • 5. […]
Average mouse tumor volume was measured at various time points post-graft. Two measurements were taken with vernier calipers on each tumor; tumor volume was calculated using the formula (length×width^2)/2. […]

C35 [6] = biological target: T3, C35; test: Characterisation of hybridoma antibodies (ELISA, Western blot, immunohistochemistry, competitive binding ELISA); details: for binding to recombinant C35 protein: ELISA and Western Blot
Experimental: Hybridoma cell lines 1F2.4.1 and 1B3.6.1, specific for C35 polypeptides, were prepared using hybridoma technology. (Kohler et al., Nature 256:495 (1975); Kohler et al., Eur. J. Immunol. 6:511 (1976); Kohler et al., Eur. J. Immunol. 6:292 (1976); Hammerling et al., in: Monoclonal Antibodies and T-Cell Hybridomas, Elsevier, N.Y., pp. 571-681 (1981)). Briefly, hybridoma cell lines were generated using standard PEG fusion to the non-secreting myeloma cell line NS-1 (P3/NS1/1-AG4-1, ATCC #TIB-18) of splenocytes from BALB/c mice immunized with syngeneic BCA34 fibroblast tumor cells transduced to over express C35. Following PEG fusion to NS-1, the hybridomas were grown in methylcellulose semi-solid media. Approximately 2 weeks later, hybridoma colonies were isolated into 96 well plates and individual supernatants were tested for reactivity with C35 by ELISA, Western blot, and immunohistochemistry. Positive hybridoma colonies were subcloned and screened for reactivity twice to ensure clonality. Antibodies were isolated from hybridoma supernatants by protein G affinity purification using standard methods. […] In addition, the present inventors developed intracellular staining flow cytometry assays for quantitative analysis using antibodies from hybridoma cell line 1F2 conjugated to Alexa-647 fluorochrome. Each of these antibodies is distinct, yet both are specific for C35 protein. It is possible to immunoprecipitate C35 protein from cell lysates with either of these antibodies and detect with the other.

Row | KA (rC35; BIAevaluation, 1:1 kinetic model) [M⁻¹] | ka (rC35; MAb 163 captured on anti-human IgG Fc CM5 chip, rC35 in flow) [M⁻¹ s⁻¹] | immunoprecipitation of C35 (C35 [4]) | Molecule | epitope specificity [1] | immunofluorescence staining [2] | immunofluorescence staining (C35-negative H16N2 cells) | binding in Western blot, tumor cell lysate (C35 [3]; 21MT1-D human breast tumor cell lysate, MAb163 4.4 ug/ml) | binding in Western blot, normal cell line (C35 [3]; H16N2 normal immortalized human breast cell line lysate) | binding in Western blot, recombinant C35 (C35 [3]; rC35 purified from E. coli, 100 ng/lane) | tumor growth, one antibody with paclitaxel [5] | competitive binding ELISA (C35 [6]) | binding to recombinant C35 protein (C35 [6]) | immunohistochemistry staining (C35 [6]; formalin fixed, paraffin embedded)
1 | 2.96e+08 | 284000 | immunoprecipitated C35 protein | MAb 163: fully human C35-specific antibody; VH from clone H730 (SEQ ID NO:62), VL from clone L74 (SEQ ID NO:66) (antibody, V domains shown, VH of MAb163 (H730); VL of MAb163 (L74)) VH: EVQLVESGGGLVKPGGSLRLSCEVSGITFSNAWMSWVRQAPGKGLEWVGRIKSKTDGGTTDYAAPVKGRFTISRDDSKNTLYLQMNSLKTEDTAVYYCSIGYYYDSSFKYGMDVWGQGTTVTVSS VL: DIQMTQSPATLSASVGDRVTITCRASQSISRWLAWYQQKPGQAPKVLIYKASTLQSGVPSRFSGSGSGTEFSLTINSLQPDDFATYYCQQYYSYLRTFGQGTKLEIK | recognizes an epitope within amino acid residues 48 to 87 of C35; also recorded: specific for an epitope within amino acid residues 48 to 87 of C35 | show dose-dependent immunofluorescence | do not show any immunofluorescence staining | binds native C35 monomer in tumor cell lysate | binding is absent in the normal cell line | binds the rC35 monomer (16 kD), dimer (˜32 kD), and larger aggregates | – | – | – | –
2 | – | – | – | 1F2: mouse monoclonal anti-C35 antibody from hybridoma 1F2.4.1, gamma1 isotype, kappa light chain (SEQ ID NO:4, 6) (antibody, V domains shown) VH: DVQLQESGPGLVKPSQSLSLTCSVTGYSITSGYFWNWIRQFPGNKLEWMGYISYDGSNNSNPSLKNRISFTRDTSKNQFFLKFNSVTTDDSAAYYCTRGTTGFAYWGQGTLVTVSA VL: QIVLTQSPAIMSASPGEKVTISCSASSSVSYMNWYQQKPGSSPKPWIYHTSNLASGVPARFSGSGSGTSYSLTISSMEAEDAATYYCQQYHSYPPTFGGGTKLEIK | specific for an epitope within the C35 residues 48-104 | – | – | – | – | – | neither the 1F2 nor 1B3 administered individually with the chemotherapeutic agent paclitaxel was effective in inhibiting tumor growth | bind different epitopes of the C35 protein | specifically bind recombinant C35 protein in ELISA and Western Blot assays | specifically stain formalin fixed, paraffin embedded C35 positive tumors and cell lines
3 | – | – | – | 1B3: mouse monoclonal anti-C35 antibody from hybridoma 1B3.6.1, gamma1 isotype, kappa light chain (SEQ ID NO:8, 10) (antibody, V domains shown) VH: EVQLQESGPSLVKPSQTLSLTCSVTGDSITSGYWNWIRKFPGNKLEYVGYISYSGGTYYNPSLKSRISITRDTSKNHYYLQLNSVTTEDTATYYCARGAYYGGAFFPYFDVWGAGTTVTVSS VL: DVQITQSPSFLAASPGETITINCRASKYISKHLVWYQEKPGETKKLLIYSGSTLQSGLPSRFSGSGSGTDFTLTISSLEPEDFAMYYCQQHNEYPLTFGAGTKLELK | specific for an epitope within C35 residues 105-115 | – | – | – | – | – | neither the 1F2 nor 1B3 administered individually with the chemotherapeutic agent paclitaxel was effective in inhibiting tumor growth | bind different epitopes of the C35 protein | specifically bind recombinant C35 protein in ELISA and Western Blot assays | –
